The record followed here is patent US20250171562A1.

First the molecules themselves.
B1: NIgG4B1A1(G4S)3 (Fc fusion)
chain 1: QVQLQESGGGLVQTGGSLRLSCAVHGRTFSNTGMGWFRQAPGNERQFVAIISPSGTSTYYADSVKGRFTISRDPAKNTVYLQMNSLKMDDTAVYYCAASYGSNWSTLRHQRRNEYDAWGQGTQVAVSGGGGSGGGGSGGGGSGPPCPPCPAPEFLGGPSVFLFPPKPKDTLMISRTPEVTCVVVDVSQEDPEVQFNWYVDGVEVHNAKTKPREEQFNSTYRVVSVLTVLHQDWLNGKEYKCKVSNKGLPSSIEKTISKAKGQPREPQVYTLPPCQEEMTKNQVSLWCLVKGFYPSDIAVEWESNGQPENNYKTTPPVLDSDGSFFLYSRLTVDKSRWQEGNVFSCSVMHEALHNHYTQKSLSLSLGK
chain 2: EVQLLESGGGLVQPGGSLRLSCAASGFTFGNYDMAWVRQAPGKRPEWVSSIDTGGDITHYADSVKGRFTISRDNAKNTLYLQMNSLRPEDTAVYWCATDEEYALGPNEFDYYGQGTLVTVSSGGGGSGGGGSGGGGSGPPCPPCPAPEFLGGPSVFLFPPKPKDTLMISRTPEVTCVVVDVSQEDPEVQFNWYVDGVEVHNAKTKPREEQFNSTYRVVSVLTVLHQDWLNGKEYKCKVSNKGLPSSIEKTISKAKGQPREPQVCTLPPSQEEMTKNQVSLSCAVKGFYPSDIAVEWESNGQPENNYKTTPPVLDSDGSFFLVSRLTVDKSRWQEGNVFSCSVMHEALHNHYTQKSLSLSLGK
B2: NIgG4A1A1(G4S)3 (Fc fusion)
chain 1: B1 chain 2 with C264Y, S269C, S281W, A283L, V322Y
chain 2: B1 chain 2
B3: CIgG4A1A1(RS) (Fc fusion)
chain 1: GPPCPPCPAPEFLGGPSVFLFPPKPKDTLMISRTPEVTCVVVDVSQEDPEVQFNWYVDGVEVHNAKTKPREEQFNSTYRVVSVLTVLHQDWLNGKEYKCKVSNKGLPSSIEKTISKAKGQPREPQVYTLPPCQEEMTKNQVSLWCLVKGFYPSDIAVEWESNGQPENNYKTTPPVLDSDGSFFLYSRLTVDKSRWQEGNVFSCSVMHEALHNHYTQKSLSLSLGKRSEVQLLESGGGLVQPGGSLRLSCAASGFTFGNYDMAWVRQAPGKRPEWVSSIDTGGDITHYADSVKGRFTISRDNAKNTLYLQMNSLRPEDTAVYWCATDEEYALGPNEFDYYGQGTLVTVSS
chain 2: B3 chain 1 with Y127C, C132S, W144S, L146A, Y185V
B4: CIgE4A1A1(GS)1 (Fc fusion)
chain 1: GPPCPPCPAPEFLGGPSVFLFPPKPKDTLMISRTPEVTCVVVDVSQEDPEVQFNWYVDGVEVHNAKTKPREEQFNSTYRVVSVLTVLHQDWLNGKEYKCKVSNKGLPSSIEKTISKAKGQPREPQVYTLPPCQEEMTKNQVSLWCLVKGFYPSDIAVEWESNGQPENNYKTTPPVLDSDGSFFLYSRLTVDKSRWQEGNVFSCSVMHEALHNHYTQKSLSLSLGKGGGGSEVQLLESGGGLVQPGGSLRLSCAASGFTFGNYDMAWVRQAPGKRPEWVSSIDTGGDITHYADSVKGRFTISRDNAKNTLYLQMNSLRPEDTAVYWCATDEEYALGPNEFDYYGQGTLVTVSS
chain 2: B4 chain 1 with Y127C, C132S, W144S, L146A, Y185V
B5: NIgG4A1A1(G4S)1 (Fc fusion)
chain 1: EVQLLESGGGLVQPGGSLRLSCAASGFTFGNYDMAWVRQAPGKRPEWVSSIDTGGDITHYADSVKGRFTISRDNAKNTLYLQMNSLRPEDTAVYWCATDEEYALGPNEFDYYGQGTLVTVSSGGGGSGPPCPPCPAPEFLGGPSVFLFPPKPKDTLMISRTPEVTCVVVDVSQEDPEVQFNWYVDGVEVHNAKTKPREEQFNSTYRVVSVLTVLHQDWLNGKEYKCKVSNKGLPSSIEKTISKAKGQPREPQVYTLPPCQEEMTKNQVSLWCLVKGFYPSDIAVEWESNGQPENNYKTTPPVLDSDGSFFLYSRLTVDKSRWQEGNVFSCSVMHEALHNHYTQKSLSLSLGK
chain 2: B5 chain 1 with Y254C, C259S, W271S, L273A, Y312V
B6: NIgG4B1A1(G4S)2 (Fc fusion)
chain 1: QVQLQESGGGLVQTGGSLRLSCAVHGRTFSNTGMGWFRQAPGNERQFVAIISPSGTSTYYADSVKGRFTISRDPAKNTVYLQMNSLKMDDTAVYYCAASYGSNWSTLRHQRRNEYDAWGQGTQVAVSGGGGSGGGGSGPPCPPCPAPEFLGGPSVFLFPPKPKDTLMISRTPEVTCVVVDVSQEDPEVQFNWYVDGVEVHNAKTKPREEQFNSTYRVVSVLTVLHQDWLNGKEYKCKVSNKGLPSSIEKTISKAKGQPREPQVYTLPPCQEEMTKNQVSLWCLVKGFYPSDIAVEWESNGQPENNYKTTPPVLDSDGSFFLYSRLTVDKSRWQEGNVFSCSVMHEALHNHYTQKSLSLSLGK
chain 2: EVQLLESGGGLVQPGGSLRLSCAASGFTFGNYDMAWVRQAPGKRPEWVSSIDTGGDITHYADSVKGRFTISRDNAKNTLYLQMNSLRPEDTAVYWCATDEEYALGPNEFDYYGQGTLVTVSSGGGGSGGGGSGPPCPPCPAPEFLGGPSVFLFPPKPKDTLMISRTPEVTCVVVDVSQEDPEVQFNWYVDGVEVHNAKTKPREEQFNSTYRVVSVLTVLHQDWLNGKEYKCKVSNKGLPSSIEKTISKAKGQPREPQVCTLPPSQEEMTKNQVSLSCAVKGFYPSDIAVEWESNGQPENNYKTTPPVLDSDGSFFLVSRLTVDKSRWQEGNVFSCSVMHEALHNHYTQKSLSLSLGK
B7: NIgG4A1A1(G4S)2 (Fc fusion)
chain 1: B6 chain 2 with C259Y, S264C, S276W, A278L, V317Y
chain 2: B6 chain 2
B8: NIgG4A1A1(RS) (Fc fusion)
chain 1: EVQLLESGGGLVQPGGSLRLSCAASGFTFGNYDMAWVRQAPGKRPEWVSSIDTGGDITHYADSVKGRFTISRDNAKNTLYLQMNSLRPEDTAVYWCATDEEYALGPNEFDYYGQGTLVTVSSRSGPPCPPCPAPEFLGGPSVFLFPPKPKDTLMISRTPEVTCVVVDVSQEDPEVQFNWYVDGVEVHNAKTKPREEQFNSTYRVVSVLTVLHQDWLNGKEYKCKVSNKGLPSSIEKTISKAKGQPREPQVYTLPPCQEEMTKNQVSLWCLVKGFYPSDIAVEWESNGQPENNYKTTPPVLDSDGSFFLYSRLTVDKSRWQEGNVFSCSVMHEALHNHYTQKSLSLSLGK
chain 2: B8 chain 1 with Y251C, C256S, W268S, L270A, Y309V

As a reminder, the EC50 is the concentration giving half of the maximal effect.

Positions count from the first letter of the chain named. Numbers in names are those of the source.

The target in this assay is mixture of three Der p 2 specific recombinant human IgE clones H10, H12, P4E (human) (UniProt P01854). Nature of the assay: RBL-SX38 IgE displacement, FACS.
Sequence of mixture of three Der p 2 specific recombinant human IgE clones H10, H12, P4E (human) (P01854 other isoform, or with tags, fused parts or gaps): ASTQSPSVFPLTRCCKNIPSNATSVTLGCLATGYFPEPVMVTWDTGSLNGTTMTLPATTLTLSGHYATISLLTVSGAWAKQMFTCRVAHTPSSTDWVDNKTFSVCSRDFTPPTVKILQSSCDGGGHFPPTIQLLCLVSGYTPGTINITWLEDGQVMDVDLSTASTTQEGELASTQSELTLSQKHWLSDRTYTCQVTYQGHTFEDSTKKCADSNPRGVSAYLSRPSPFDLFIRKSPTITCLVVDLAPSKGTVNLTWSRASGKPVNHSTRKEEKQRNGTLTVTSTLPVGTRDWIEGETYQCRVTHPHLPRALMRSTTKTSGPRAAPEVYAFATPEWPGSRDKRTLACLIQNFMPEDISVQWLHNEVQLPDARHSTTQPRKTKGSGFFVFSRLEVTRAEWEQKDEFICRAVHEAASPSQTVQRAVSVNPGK
Consider B1, for which the EC50 worked out at 2.6 nM and the Max effect/effect 1 µM stood at 99%.

In the case of B2, the Max effect/effect 1 µM amounted to 40%. Turning to B3, the Max effect/effect 1 µM is 11%. Same read-out and setting: next, B4: 7%. For B5, the Max effect/effect 1 µM is 44%.

In the case of B6, the concentration giving a half-maximal response (EC50) was found to be 3 nM and the Max effect/effect 1 µM was 99%. As for B7, the Max effect/effect 1 µM was found to be 36%. The same measure, in the same setting: next, B8: 45%.
